One molecule from US20210122810A1 (Janssen / Centocor, published 2021) can be followed below.

As usually defined, the Kd is the equilibrium constant for the complex coming apart. Low values mean higher affinity, high ones lower affinity.

The target of assay [1] is T1, Tau peptide encompassing residues 299-318 (human).
T1 construct: also called Tau protein (peptide)
T1 peptide: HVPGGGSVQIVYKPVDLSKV
Put plainly: isothermal titration calorimetry (ratio of the KD values against CBTAU-27.1). A general note: In ITC the heat of successive injections is recorded.

Assay [2] concerns the target T1, Tau peptide encompassing residues …. Put plainly: isothermal titration calorimetry, peptide in cell titrated with IgG, PBS pH 7.4, one set of sites model.
Description: Affinities of the binding molecules of the present invention were determined using a Microcal Auto-iTC200 isothermal titration calorimeter (Malvern). Tau and tau antibodies were dialysed to PBS, pH 7.4 to ensure perfect buffer matching conditions. […] Data was fitted according to a one set of sites model using Microcal PEAQ-ITC Analysis Software (Malvern).

B1: antibody of the present invention (antibody, V domains shown)
VH: QVQLVESGPEMRKPGESLKISCKTSGYIFSDYWTAWVRQLPGKGLQWMGIIYSGDSDTRYHPSVQGHVTMSTDSSLTTAYLQWSSLKASDTGIYYCARLDARVDAGWQLDSWGQGTLVTVSS
VL: DIQLTQSPDSLAVSLGERATINCKSSQSVFYRDNNKNYLAWYQHKSGQPPKLLFFWASSRESGVSDRFSGSGSGTDFTLTIDNLQAEDVALYYCQHYFNIPHNFGQGTKLEIK
notes: also called antibody according to the present invention
For the molecule B1, in assay [1], the “fold improvement in affinity relative to CBTAU-27.1” value was 50 fold. In addition, the equilibrium dissociation constant (Kd) in assay [2] came out at 12.8 nM.
